According to the nanobody polyreactivity screen of Harvey et al. (2022):

Assay: yeast display, Sf9 membrane polyspecificity reagent, FACS + sequencing; frameworks hold sequencing errors
Procedure, shortened: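 Nanobodies from a synthetic yeast display library (Saccharomyces cerevisiae BJ5465), induced 36–48 hours with galactose, were stained 1 hour at 4 °C with 10% biotinylated, detergent-solubilized Sf9 membrane reagent, enriched on streptavidin microbeads, then FACS-sorted. Anti-HA (expression) and streptavidin (reagent binding) fluorescence set low and high (top ~1%) gates. Polyreactivity labels come from the gate of origin. Genes were colony-PCR amplified, MiSeq 2 × 250 sequenced and filtered by CDR length.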
With “QVQLVESGGGLVQAGGSLRLSCAASGRTYDNTMGWYRKAHGKESELVAAISWSGGRTRYADSVKGRFTISRDNAKNTVYLQMNSLKPEDTAVYYCAAANGGYPPYRYVYGYYYWGQGTQVTVSS” the “polyreactivity (PSR sort gate)” value was “high polyreactivity”. In the case of “QVQLVESGGGLVQAGGSLRLSCAASGRTYGGYAMGWYRQAPGKERELVAVINWRGGSTYYADSVKGRFTISRDNAKHTVYLQMNILKPEDTAVYYCNKVSLRTQSAQFHYWGQGTQVTVSS”, the “polyreactivity (PSR sort gate)” value is reported as “high polyreactivity”. With “QVQLVESGGGLVQAGGSLRLSCAASGRTYGYAMGSYRPAPGKERELVARITWRGGSTSYADSVKGRFTISRDNAKNTVYLQMNILKPEDTAVYYCAAGFYFPVYTYVRIRYYYWGQGTQVTVSS” the “polyreactivity (PSR sort gate)” value was “high polyreactivity”. With “QVQLVESGGGLVQAGGSLRLSCAASGRTYGYAMGWYTQAPGIERELVARINRTTGSTYYADSVKGRFTISRDNAKNTVYLQMNSLKPQDTAVYYCAKSSYSRALKLYYWGQGSQVTVSS” the “polyreactivity (PSR sort gate)” value was “high polyreactivity”. With “QVQLVESGGGLVQAGGSLRLSCAASGRTYHQYAMGWYRQAPGKERELVARITSGGRTNYADSVKGRFTISRDNAKNTVYLHMNSLKPEDTAVYYCPAASSYYFYISSKLDYWGQGTQVTVSS” the “polyreactivity (PSR sort gate)” value was “high polyreactivity”. In the case of “QVQLVESGGGLVQAGGSLRLSCAASGRTYISNVIGWYRQAPGKERELVAAISGSSGSTRYADSVKGRFTISRDNAKNTVYLQMNSLKPEDSAVYYCAARAPWPKWGYYYWGQGTQVTVSS”, the “polyreactivity (PSR sort gate)” value is reported as “high polyreactivity”. With “QVQLVESGGGLVQAGGSLRLSCAASGRTYRYAMGWYRQAPGNERELVAAIRWSGGSTYYADSVKGRFTISRDNAKNTVYIQMNSLKPEDTAVYYCAADSYATRYYYWGQGTQVTVSS” the “polyreactivity (PSR sort gate)” value was “high polyreactivity”. In the case of “QVQLVESGGGLVQAGGSLRLSCAASGRTYVRNGMGWYRQAPGKERELVAAISRGGSTNYADSVKGRFTISRDNAKNTVYLEMNSLKPEDTAVYYCNARTAEYRPYYYRYNYWGQGTQVTLSS”, the “polyreactivity (PSR sort gate)” value is reported as “high polyreactivity”. In the case of “QVQLVESGGGLVQAGGSLRLSCAASGRTYVYTMGWYRQAPGKERELVAAIRYSGGRTYYADSVKGRFTISRDNAMNTVYLQMNSLKPEDTAVYYCAARNYATGVRYDYWGQGTQVTVSS”, the “polyreactivity (PSR sort gate)” value is reported as “high polyreactivity”. With “QVQLVESGGGLVQAGGSLRLSCAASGSFFSTYAMGWYRQAPGKERELVAAISVSGSSTYYADSVKGLFTISRDNAKNTVYLQMNSLKPEDTAVYYCNKAFRSVRPRRRYDYWGQGTQVTVSS” the “polyreactivity (PSR sort gate)” value was “low polyreactivity”. In the case of “QVQLVESGGGLVQAGGSLRLSCAASGSICYGYTMGWYRQAPGKEREFVAAITGSGGSTYYADSVKGRFTISRDNAKNTVYLQMNSLKPEDTAVYYCAARRYVNRRYDYWGQGTQVTVSS”, the “polyreactivity (PSR sort gate)” value is reported as “high polyreactivity”. With “QVQLVESGGGLVQAGGSLRLSCAASGSIDWNAMGWYRQAPGKEREFVAAISSSGGRTSYADSVKGRFTISRDNAKNTVYLQMNSLKPEDTAVYYCAAAGSYDGDRYYYWGQGTQVTVSS” the “polyreactivity (PSR sort gate)” value was “high polyreactivity”. With “QVQLVESGGGLVQAGGSLRLSCAASGSIFAANAMGWYRQAPGKEREFVASISRSGGSTYYADSVKGRFTISRDNAKNTVYLQMTSLKPEDTAVYYCATRTRIYSARDHYGYWGQGTQVTVSS” the “polyreactivity (PSR sort gate)” value was “low polyreactivity”. For “QVQLVESGGGLVQAGGSLRLSCAASGSIFAANTMGWYRQAPGKERELVAAITGSGASTYYADSVKGRFTISRDNAKNTVYLQMNSLKPEDTAVYYCAARRYTSYYKDGWYAYYYWGQGTQVTVSS”, the “polyreactivity (PSR sort gate)” value was “high polyreactivity”. With “QVQLVESGGGLVQAGGSLRLSCAASGSIFAAYAMGGYRQAPGKERELVATIRWTSGSTYYADSVKGRFTISRDNAKNTVYLQMNSLKPEDTAVFYCAAQKNKYYWPRFGYWGQGTQVTGSS” the “polyreactivity (PSR sort gate)” value was “high polyreactivity”. With “QVQLVESGGGLVQAGGSLRLSCAASGSIFAAYAMGWYRQAPGKERELVAAISLDDGSTYADSVKGRFTISRDNAKNTVYLQMNSLKPEDTAVYYCNARYKSRLYPRYDYWGQGTQVTVSS” the “polyreactivity (PSR sort gate)” value was “high polyreactivity”. In the case of “QVQLVESGGGLVQAGGSLRLSCAASGSIFADNAMGWDRQAPGKERELVAVISFSGSSTYYADSVKGRFTISRDNAKNTVYFQMNSVKPEDTAVYYWNAVRYRLERFDYWGQGTQVTVSS”, the “polyreactivity (PSR sort gate)” value is reported as “high polyreactivity”. In the case of “QVQLVESGGGLVQAGGSLRLSCAASGSIFADYAMGWYRQAPGKERELVAAITGSGGRTYYADSVKGRFTISRDNAKNTVYLQMNSLKPEDTAVYYCAAYQVVWDPYTRYDYWGQGTQVTVSS”, the “polyreactivity (PSR sort gate)” value is reported as “low polyreactivity”. With “QVQLVESGGGLVQAGGSLRLSCAASGSIFADYAMGWYRQAPGKERELVAAITYTDDRTYYADSVKGRFTISRDNAKNTVYLQMNSLKPEDTAVYYCNRVFTCRYGYRYEYWGQGSQVTVSS” the “polyreactivity (PSR sort gate)” value was “high polyreactivity”. In the case of “QVQLVESGGGLVQAGGSLRLSCAASGSIFADYTMGWYRQAPGKERELVAPINYRDGGTSYADSVKGRFTISRDKANNTVYLQMNSLKPEDTAVYYCTKQVDLSGQWDYWYGYYTYDYWGPGTQVTVSS”, the “polyreactivity (PSR sort gate)” value is reported as “low polyreactivity”. With “QVQLVESGGGLVQAGGSLRLSCAASGSIFAGNTMGWSRQAPGKEREFVASIRSSSGSTYYADSVKGRFTISRDNAKNTVYLQMNSLKPEDTAVYYCARVAPASGVRWYYYWGQGTQVTVSS” the “polyreactivity (PSR sort gate)” value was “high polyreactivity”. For “QVQLVESGGGLVQAGGSLRLSCAASGSIFAGNVMGWYRQAPGKERELVAAISRRGGRTYYADSVKGRFTISRDNAKNTVYLQMNSLKPEDTAVYYCAARRDPVLGNSDFWGQGTQVTVSS”, the “polyreactivity (PSR sort gate)” value was “high polyreactivity”. For “QVQLVESGGGLVQAGGSLRLSCAASGSIFAGYAMGLYRQAPGKERELVAAISRSGDSTYYADSVKGRFTISRDNAKNTVYLQMNSLKPEDTAVYYCAAVLSYSYVRYNYWGQGTQVTVSS”, the “polyreactivity (PSR sort gate)” value was “high polyreactivity”. For “QVQLVESGGGLVQAGGSLRLSCAASGSIFAGYAMGWYRQAPGKERELVAAISWSGGGTYYADSVKGRFTISRDNAKNTVYLQMNSLKPEDTAVYYCNAYGYRHRGNGYWGQGTQVTVSS”, the “polyreactivity (PSR sort gate)” value was “high polyreactivity”. In the case of “QVQLVESGGGLVQAGGSLRLSCAASGSIFAGYVMGWYRPAPGKERELVAATYYADSVKGRFTISRDNAKNTVYLQMNSLKPEDTAVYYCNAESLYTHYNDTSLTVEYGYWGQGTQVTVSS”, the “polyreactivity (PSR sort gate)” value is reported as “low polyreactivity”. In the case of “QVQLVESGGGLVQAGGSLRLSCAASGSIFAHYAMGWYRQAPGKERELVAAISKNAGSTYYADSVKGRFTISRDNAKNTVYLQMNSLKPEDTAVYYCATGYQKPYSSDYWGQGTQVTVSS”, the “polyreactivity (PSR sort gate)” value is reported as “high polyreactivity”. In the case of “QVQLVESGGGLVQAGGSLRLSCAASGSIFAHYTMGWYRQAPGKERELVAAISGSGGSTYYADSVKGRFTISCDNAKNTVYLQMNSLKPEDTAVYYCNKRYRPVGPYDYWGQGTQVTVSS”, the “polyreactivity (PSR sort gate)” value is reported as “high polyreactivity”. With “QVQLVESGGGLVQAGGSLRLSCAASGSIFAINAMGWYRQAPGKERELVARISWSGGRTYYADSVKGRFTISRDNAKNTVYLQMNSLKPEDTAVYYCAKRYYKSLNRDEFDSWGQGTQVTVSS” the “polyreactivity (PSR sort gate)” value was “high polyreactivity”. For “QVQLVESGGGLVQAGGSLRLSCAASGSIFAKNAMGWYRQAPGKERELVAAISSSGGRTYYADSVKGRFTISRDNAKNTVYLQMNSLKPEDTAVYYCAADLRYIYWSYYYWGQGTQVTVSS”, the “polyreactivity (PSR sort gate)” value was “low polyreactivity”. With “QVQLVESGGGLVQAGGSLRLSCAASGSIFAKYAMGWYRQAPGKERELVAAISSGGSTYYADSVKGRFTISRDNAKNTVYIQMNSLKPEDTAVYYCAADYGSDYTKGDYWGQGTQVTVSS” the “polyreactivity (PSR sort gate)” value was “low polyreactivity”. For “QVQLVESGGGLVQAGGSLRLSCAASGSIFALYAMGWYRQAPGKERELVAAISYRGGRTYYADSVKGRFTISRDNAKNTVYLQMNSLKPEDTAVYFCATDFPGKFDYWGQGTQVTVSS”, the “polyreactivity (PSR sort gate)” value was “low polyreactivity”. For “QVQLVESGGGLVQAGGSLRLSCAASGSIFALYAMGWYRQAPGQERELVAAISYRGGRTYYADSVKGRFTISRDNAKNTVYLQMNSLKPEDTAVYYCNARAFPFGTGVQGFGFGYWGQGTQVTVSS”, the “polyreactivity (PSR sort gate)” value was “low polyreactivity”. In the case of “QVQLVESGGGLVQAGGSLRLSCAASGSIFAPDVMGWYRQAPGKERELVAAITESGGRTYYAASVKGRFTISRDNAKNTVYLQMNSLKPVDTAVYSCAARTFDRNRQLRRQWYDYWGLGTQVTVSS”, the “polyreactivity (PSR sort gate)” value is reported as “high polyreactivity”. With “QVQLVESGGGLVQAGGSLRLSCAASGSIFAPNAMGWYRQAPGKEREFVAGITQSGTSTYADSVKGRFTISRDNAKNTVYLQMNSLKPEDTAVYYCAAEYYYGYWYGYIISYDYWGQGTQVTVSS” the “polyreactivity (PSR sort gate)” value was “high polyreactivity”. With “QVQLVESGGGLVQAGGSLRLSCAASGSIFAPYAMGWTRQAPGKERELVASISVRSGSTHYADSVKGRFTISRDNAKNTVYLQMNCLNPEDTAVYYCNARTYDYSWVWESRWWYYYWGQGTQVTVSS” the “polyreactivity (PSR sort gate)” value was “high polyreactivity”. With “QVQLVESGGGLVQAGGSLRLSCAASGSIFAPYSMGWYRQAPGKERELVAAITWSGDSTYYADSVKGRFTISRDNAKNTVYLQMNSMKPEDTSVYYCATEEVYGQGNYWGQGTQLTVSS” the “polyreactivity (PSR sort gate)” value was “low polyreactivity”. For “QVQLVESGGGLVQAGGSLRLSCAASGSIFAQYAMGWYRQAPGKERELVATISSVGSTNYADSVKGRFTISRDNAKNTVYLQMNSLKPEDTAVYYCNAVRSGWGYFYGLNYWGQGTQVTVSS”, the “polyreactivity (PSR sort gate)” value was “low polyreactivity”. For “QVQLVESGGGLVQAGGSLRLSCAASGSIFARYAMGWYRQAPGKEREFVAAITGRGGTTNYADSVKGRFTISRDNAKNTVYLQMNSLKPEDTAVYYCNARDRYREHDYWGQGTQVTVSS”, the “polyreactivity (PSR sort gate)” value was “high polyreactivity”. With “QVQLVESGGGLVQAGGSLRLSCAASGSIFARYAMGWYRQAPGKERELVATITRGGSTNYADSVKGRFTISRDNAKNTVYLQMNSLKPDDTAVYYCARTSYGRLDYWGQGPQVTVSS” the “polyreactivity (PSR sort gate)” value was “low polyreactivity”. With “QVQLVESGGGLVQAGGSLRLSCAASGSIFASNAMGCYRQAPGKERELVAAINSGDSTNYADSVKGRFTISRDNAKNTVYLQMNSLKPEDTAVYYCARGLEERYDYWGQGTQVTVSS” the “polyreactivity (PSR sort gate)” value was “low polyreactivity”. In the case of “QVQLVESGGGLVQAGGSLRLSCAASGSIFASNAMGWYRQAPGKERELVAAISTSGGSTYYADSVKGRFTISRDNAKNTVYLQMNSLKPEDTAVYYCAKLLARGFRIWQDYDYWGQGTQVTVSS”, the “polyreactivity (PSR sort gate)” value is reported as “low polyreactivity”. In the case of “QVQLVESGGGLVQAGGSLRLSCAASGSIFASNTMGWYRQAPGKERELVAAISFRGGRTYYADSVKGRFTISRDNAKNTVYLQMNSLKPEDTAVYYCNAAYGRYPRGGYWGQGTQVTVSS”, the “polyreactivity (PSR sort gate)” value is reported as “high polyreactivity”. In the case of “QVQLVESGGGLVQAGGSLRLSCAASGSIFASNTMGWYRQAPGKERELVAGITKIGSSTYYADSVKGRFTISRDHAKNTVYLQMNSLKPEDTSVYYSNAYGPNIYSSRYDYWGQGTQVTLSS”, the “polyreactivity (PSR sort gate)” value is reported as “low polyreactivity”.
